Key:
Assay in all cases: SPR, mAb captured on anti-hFc, 25C
Human PCSK9-myc-myc-his = target: T1, Human PCSK9-myc-myc-his (human, UniProt Q8NBP7 31-692)
T1 construct: also called hPCSK9-mmh; hPCSK9

hPCSK9(D374Y)-mmh = target: T2, hPCSK9(D374Y)-mmh (human, UniProt Q8NBP7 31-692)
T2 construct: also called hPCSK(D374Y)-mmh

[1] = target: T3, tagged rhesus monkey (Macaca mulata) PCSK9 (rhesus monkey (Macaca mulata), UniProt A8T666 31-692)
T3 construct: also called mmPCSK9-mmh; mmPCSK9

[2] = target: T4, cynomolgus monkey (Macaca fascicularis) PCSK9, myc-myc-his tagged (cynomolgus monkey (Macaca fascicularis), UniProt A8T662 31-692 (Macaca nemestrina entry), limits assumed)
T4 construct: also called mfPCSK9-mmh; mfPCSK9

[3] = target: T5, mouse PCSK9, myc-myc-his tagged (mouse, UniProt Q80W65 35-694)
T5 construct: also called mPCSK9-mmh; mPCSK9

[4] = target: T6, his-tagged Syrian golden hamster (Mesocricetus auratus) PCSK9 (Syrian golden hamster (Mesocricetus …))
T6 construct: also called maPCSK9-h; maPCSK9
T6 chain: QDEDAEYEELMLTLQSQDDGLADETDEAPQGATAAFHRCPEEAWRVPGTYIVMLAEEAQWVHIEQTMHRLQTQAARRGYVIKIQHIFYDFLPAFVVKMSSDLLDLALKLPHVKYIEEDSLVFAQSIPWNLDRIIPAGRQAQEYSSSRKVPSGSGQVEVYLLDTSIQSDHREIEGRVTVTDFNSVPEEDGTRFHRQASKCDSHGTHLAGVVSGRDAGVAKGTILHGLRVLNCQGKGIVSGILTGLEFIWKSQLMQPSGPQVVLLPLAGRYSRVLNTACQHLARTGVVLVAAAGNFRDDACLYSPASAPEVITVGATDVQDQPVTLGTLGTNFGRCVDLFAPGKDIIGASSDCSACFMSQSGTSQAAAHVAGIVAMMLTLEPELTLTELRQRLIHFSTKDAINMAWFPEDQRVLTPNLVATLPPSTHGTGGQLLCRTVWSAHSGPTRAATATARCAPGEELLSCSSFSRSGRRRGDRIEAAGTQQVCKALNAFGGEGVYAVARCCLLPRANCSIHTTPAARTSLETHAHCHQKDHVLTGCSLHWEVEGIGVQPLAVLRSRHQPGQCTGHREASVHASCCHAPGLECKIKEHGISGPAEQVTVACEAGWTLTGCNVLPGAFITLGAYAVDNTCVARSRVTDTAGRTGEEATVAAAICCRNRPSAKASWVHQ

[5] = target: T7, rat (Rattus norvegicus) PCSK9, myc-myc-his tagged (rat (Rattus norvegicus), UniProt P59996 31-691)
T7 construct: also called rPCSK9-mmh; rPCSK9

[6] = target: T8, human PCSK1, myc-myc-his tagged (human, UniProt P29120 111-753, limits assumed)
T8 construct: also called hPCSK1-mmh; hPCSK1
T8 sequence: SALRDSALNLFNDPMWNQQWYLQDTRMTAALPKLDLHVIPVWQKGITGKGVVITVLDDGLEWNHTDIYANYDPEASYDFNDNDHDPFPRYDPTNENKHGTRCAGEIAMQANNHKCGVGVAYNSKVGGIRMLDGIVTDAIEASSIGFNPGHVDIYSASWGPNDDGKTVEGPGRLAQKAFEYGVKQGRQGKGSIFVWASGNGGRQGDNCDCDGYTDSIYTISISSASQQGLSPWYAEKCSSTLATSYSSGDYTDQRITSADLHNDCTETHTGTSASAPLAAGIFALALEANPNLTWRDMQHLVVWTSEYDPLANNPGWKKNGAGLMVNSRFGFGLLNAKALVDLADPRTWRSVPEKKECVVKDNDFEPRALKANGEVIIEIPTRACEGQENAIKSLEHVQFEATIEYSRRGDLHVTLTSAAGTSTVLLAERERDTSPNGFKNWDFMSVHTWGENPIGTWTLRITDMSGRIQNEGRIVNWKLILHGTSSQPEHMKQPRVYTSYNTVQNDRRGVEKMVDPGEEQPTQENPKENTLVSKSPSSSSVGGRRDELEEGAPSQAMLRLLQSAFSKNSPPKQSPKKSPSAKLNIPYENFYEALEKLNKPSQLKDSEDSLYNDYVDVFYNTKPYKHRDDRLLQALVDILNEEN

[7] = target: T9, human PCSK7, myc-myc-his tagged (human, UniProt Q16549 142-667, limits assumed)
T9 construct: also called hPCSK7-mmh; hPCSK7
T9 sequence: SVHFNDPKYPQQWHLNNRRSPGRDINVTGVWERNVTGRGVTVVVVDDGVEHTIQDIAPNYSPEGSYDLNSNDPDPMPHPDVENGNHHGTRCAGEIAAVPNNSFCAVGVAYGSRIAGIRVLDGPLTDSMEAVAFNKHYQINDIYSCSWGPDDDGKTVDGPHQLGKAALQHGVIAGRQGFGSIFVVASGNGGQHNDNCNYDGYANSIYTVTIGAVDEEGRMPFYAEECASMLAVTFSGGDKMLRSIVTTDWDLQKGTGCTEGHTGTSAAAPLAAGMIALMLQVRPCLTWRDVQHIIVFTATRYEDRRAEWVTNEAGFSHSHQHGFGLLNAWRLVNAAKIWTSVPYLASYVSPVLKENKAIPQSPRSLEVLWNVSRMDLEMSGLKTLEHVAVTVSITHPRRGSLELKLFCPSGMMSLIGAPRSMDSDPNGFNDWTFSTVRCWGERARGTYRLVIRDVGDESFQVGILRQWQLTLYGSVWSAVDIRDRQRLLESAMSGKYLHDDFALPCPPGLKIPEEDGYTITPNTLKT

T4 sequence (A8T662 31-692 limits assumed): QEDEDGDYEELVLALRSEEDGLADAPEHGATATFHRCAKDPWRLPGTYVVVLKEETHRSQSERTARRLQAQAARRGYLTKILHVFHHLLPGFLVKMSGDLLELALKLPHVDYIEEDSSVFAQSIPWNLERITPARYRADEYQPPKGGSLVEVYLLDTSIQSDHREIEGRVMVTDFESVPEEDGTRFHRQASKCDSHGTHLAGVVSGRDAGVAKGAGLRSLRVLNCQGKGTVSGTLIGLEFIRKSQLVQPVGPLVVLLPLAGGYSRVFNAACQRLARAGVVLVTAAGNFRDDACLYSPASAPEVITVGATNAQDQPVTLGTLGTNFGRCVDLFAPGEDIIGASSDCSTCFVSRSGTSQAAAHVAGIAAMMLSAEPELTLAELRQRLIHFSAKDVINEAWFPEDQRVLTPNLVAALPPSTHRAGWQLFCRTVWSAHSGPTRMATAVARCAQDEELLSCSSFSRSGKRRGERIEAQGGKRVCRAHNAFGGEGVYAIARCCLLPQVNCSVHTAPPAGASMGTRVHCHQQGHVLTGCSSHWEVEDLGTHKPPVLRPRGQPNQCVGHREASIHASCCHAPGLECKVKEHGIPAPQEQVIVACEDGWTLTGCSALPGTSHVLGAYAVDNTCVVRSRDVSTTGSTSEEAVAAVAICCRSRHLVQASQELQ
T7 sequence (P59996 31-691 limits assumed): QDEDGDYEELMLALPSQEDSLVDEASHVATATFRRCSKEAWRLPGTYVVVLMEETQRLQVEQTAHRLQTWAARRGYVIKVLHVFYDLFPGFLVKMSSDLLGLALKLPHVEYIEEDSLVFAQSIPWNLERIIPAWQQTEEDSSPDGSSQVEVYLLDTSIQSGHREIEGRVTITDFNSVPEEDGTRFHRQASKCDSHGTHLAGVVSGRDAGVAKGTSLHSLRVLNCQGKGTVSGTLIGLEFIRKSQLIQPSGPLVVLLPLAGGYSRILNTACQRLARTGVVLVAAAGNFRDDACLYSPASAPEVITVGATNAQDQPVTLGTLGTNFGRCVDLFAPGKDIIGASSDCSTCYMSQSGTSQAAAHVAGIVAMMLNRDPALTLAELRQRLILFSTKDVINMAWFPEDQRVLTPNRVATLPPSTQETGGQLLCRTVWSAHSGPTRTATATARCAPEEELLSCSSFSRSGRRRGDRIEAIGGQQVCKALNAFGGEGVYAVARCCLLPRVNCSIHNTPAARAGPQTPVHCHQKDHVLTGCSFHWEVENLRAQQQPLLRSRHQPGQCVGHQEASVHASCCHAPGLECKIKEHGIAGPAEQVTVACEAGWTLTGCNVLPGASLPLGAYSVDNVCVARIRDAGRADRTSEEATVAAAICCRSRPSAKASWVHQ
T5 sequence (Q80W65 35-694 limits assumed): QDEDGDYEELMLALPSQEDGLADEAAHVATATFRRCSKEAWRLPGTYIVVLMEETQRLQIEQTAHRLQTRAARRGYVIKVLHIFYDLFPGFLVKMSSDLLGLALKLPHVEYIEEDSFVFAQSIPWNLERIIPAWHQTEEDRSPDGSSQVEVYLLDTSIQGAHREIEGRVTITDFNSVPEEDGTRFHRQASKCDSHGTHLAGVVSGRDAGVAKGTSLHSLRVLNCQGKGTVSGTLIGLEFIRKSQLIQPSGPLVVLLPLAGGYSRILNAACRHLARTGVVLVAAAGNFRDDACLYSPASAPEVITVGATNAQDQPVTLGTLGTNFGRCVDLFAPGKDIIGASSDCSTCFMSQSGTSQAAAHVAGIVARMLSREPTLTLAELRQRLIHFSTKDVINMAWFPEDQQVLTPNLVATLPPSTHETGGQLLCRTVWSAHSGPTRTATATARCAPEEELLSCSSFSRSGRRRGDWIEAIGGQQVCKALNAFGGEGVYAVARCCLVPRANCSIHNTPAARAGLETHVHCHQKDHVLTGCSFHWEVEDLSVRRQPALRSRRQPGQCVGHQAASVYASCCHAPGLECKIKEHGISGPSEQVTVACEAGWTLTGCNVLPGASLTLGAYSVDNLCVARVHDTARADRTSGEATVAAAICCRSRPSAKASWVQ
T3 sequence (A8T666 31-692 limits assumed): as the sequence (A8T662 31-692 limits assumed) above, with A607P, E639K counted along it

B1: H1H316P (antibody, V domains shown)
VH: EVQLVESGGGLVQPGGSLRLSCAASGFTFNNYAMNWVRQAPGKGLDWVSTISGSGGTTNYADSVKGRFIISRDSSKHTLYLQMNSLRAEDTAVYYCAKDSNWGNFDLWGRGTLVTVSS
VL: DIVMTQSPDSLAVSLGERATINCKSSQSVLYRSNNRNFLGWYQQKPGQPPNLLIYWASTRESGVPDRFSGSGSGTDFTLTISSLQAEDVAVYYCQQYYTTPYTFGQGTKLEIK
notes: Fully human mAb made in CHO cells; also called mAb316P
Human PCSK9-myc-myc-his
  Kd: 0.58 nM
  T1/2: 36 min
hPCSK9(D374Y)-mmh
  Kd: 1.69 nM
  T1/2: 15 min
[1]
  Kd: 0.55 nM
  T1/2: 92 min
[2]
  Kd: 0.52 nM
  T1/2: 60 min
[3]
  Kd: 2.3 nM
  T1/2: 11 min
[4]
  Kd: 6.81 nM
  T1/2: 5 min
[5]
  Kd: 14.5 nM
  T1/2: 2 min

B2: H1M300N (antibody, V domains shown)
VH: EMQLVESGGGLVQPGGSLRLSCAASGFTFSSHWMKWVRQAPGKGLEWVANINQDGSEKYYVDSVKGRFTISRDNAKNSLFLQMNSLRAEDTAVYYCARDIVLMVYDMDYYYYGMDVWGQGTTVTVSS
VL: not shown
notes: Fully human version made in CHO cells
[6]
  binding result: no binding (tested: 100 nM)
[7]
  binding result: no binding (tested: 100 nM)

From patent publication US20130064834A1 (published 2013)
